Results on 3 molecules are retold here after patent US6861578B1, “Method for plant protection against insects or nematodes by transformation with a nucleic acid encoding equistatin” (Plant Research International B.V., priority 1997, dated 2005).

Data set [1] has as its system T1, equistatin, isolated from sea anemone Actinia equina.
T1 sequence: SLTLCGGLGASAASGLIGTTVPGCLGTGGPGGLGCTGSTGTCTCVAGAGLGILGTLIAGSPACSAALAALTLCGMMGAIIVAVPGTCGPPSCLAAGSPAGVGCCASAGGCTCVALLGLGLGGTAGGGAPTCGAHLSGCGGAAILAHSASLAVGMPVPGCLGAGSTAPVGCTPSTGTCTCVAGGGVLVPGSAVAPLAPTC

The target of data set [2] is Colorado potato beetle larval gut proteases (total gut extract, pH 3). Nature of the data set: cell-based or functional assay.
For data set [3], the target named is western corn rootworm (Diabrotica virgifera) third instar larval gut proteases. Nature of the data set: cell-based or functional assay.
The target in data set [4] is T2, papain (UniProt P00784 134-345).
T2 construct: also called cysteine proteinase, papain
T2 sequence (looked up): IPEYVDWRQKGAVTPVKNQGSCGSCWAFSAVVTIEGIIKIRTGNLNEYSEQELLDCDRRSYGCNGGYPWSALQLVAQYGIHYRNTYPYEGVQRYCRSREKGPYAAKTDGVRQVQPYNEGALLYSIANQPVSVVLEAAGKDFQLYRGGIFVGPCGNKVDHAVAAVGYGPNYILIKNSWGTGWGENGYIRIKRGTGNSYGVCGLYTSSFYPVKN
Nature of the data set: papain titration in microtiter plate, Z-Phe-Arg-pNA substrate. Here is the method:
In a microtiterplate 20 µl papain solution (a fresh solution of 1 mg/ml (Sigma) in MES buffer titrated with E-64 to determine the active fraction, usually 17%) is combined with 0–80 µl of known protein concentration. MES buffer (50 mM MES, pH 6.5; 0.6 mg/ml L-cysteine; 1 mg/ml BSA fraction V) is added to a final volume of 150 µl. The mixture is incubated for 30 min at room temperature and subsequently 50 µl of substrate solution (60 µl of 15 mg/ml Z-Phe-Arg-pNA dissolved in methanol is diluted in 940 µl MES buffer before use). The plate is immediately placed in the nicrotiterplate reader and measured at 405 nm. Readings up to an OD600 of 0.3 are linear. Rates of change are used to determine the activity with increasing amounts of inhibitor. Results are graphically represented and at stoichiometric concentrations the amount of dissociated complex is determined to determine the apparent equilibrium dissociation constant (Ki). […] The apparent equilibrium dissociation constant for papain was estimated to be 0.6 nM in agreement with the data published for the purified protein (Lenarcic et al. (1997) J. Biol. Chem. 272: 13899–13903.

In data set [5] the target is T3, cathepsin D (Homo sapiens, UniProt P07339). The data set can be described thus: steady state inhibition of cathepsin D hydrolysis of chromophoric substrate.
The target of data set [6] is T2, papain. Nature of the data set: continuous rate enzyme inhibition assay with papain.
Data set [7] deals with proteases in extracts of adult leafminer flies (Liriomyza trifolii). The data set can be described thus: cell-based or functional assay.
The target of data set [8] is potato protease inhibitor-insensitive cysteine proteases of Colorado potato beetle (Leptinotarsa decemlineata) larval gut extracts. Nature of the data set: cell-based or functional assay.
Data set [9] deals with proteases in extracts of adult western flower thrips (Frankliniella occidentalis). The data set can be described thus: cell-based or functional assay.
Data set [10] concerns the target T2, papain. The data set can be described thus: continuous rate enzyme inhibition assay with papain; Ki = kd/ka.
The target in data set [11] is T3, cathepsin D. Nature of the data set: active site titration of cathepsin D with equistatin (FIG. 12).

Take β-trypsin: the “limited proteolysis, reverse-phase HPLC and N-terminal sequencing” value in data set [1] is “equistatin was found to be a good substrate for trypsin”.

B1: recombinant equistatin (expressed in E. coli from pB3-equistatin, purified on papain-sepharose) (other, not shown: large carriers; small tags and cut ends)
chain: SLTKCQQLQASANSGLIGTYVPQCKETGEFEEKQCWGSTGYCWCVDEDGKEILGTKIRGSPDCSRRKAALTLCQMMQAIIVNVPGWCGPPSCKADGSFDEVQCCASNGECYCVDKKGKELEGTRQQGRPTCERHLSECEEARIKAHSNSLRVEMFVPECLEDGSYNPVQCWPSTGYCWCVDEGGVKVPGSDVRFKRPTC
notes: also called EI
In data set [2], B1 displayed an inhibition of total protease activity (FITC-hemoglobin), pH 3 of 62 % inhibition and a residual protease activity (FITC-hemoglobin), pH 3 (% residual activity) of 36. Also, in data set [3], the residual protease activity (FITC-hemoglobin), pH 3 (% residual activity) amounted to 2 and the residual protease activity (FITC-hemoglobin), pH 6.5 (% residual activity) was 7. The affinity with papain [4], expressed as Ki, was 0.6 nM.

B2: equistatin, isolated from sea anemone Actinia equina (protein)
chain: SLTLCGGLGASAASGLIGTTVPGCLGTGGPGGLGCTGSTGTCTCVAGAGLGILGTLIAGSPACSAALAALTLCGMMGAIIVAVPGTCGPPSCLAAGSPAGVGCCASAGGCTCVALLGLGLGGTAGGGAPTCGAHLSGCGGAAILAHSASLAVGMPVPGCLGAGSTAPVGCTPSTGTCTCVAGGGVLVPGSAVAPLAPTC
B2 returned a Ki with cathepsin D [5] of 0.3 nM. In the data set with papain [6], the koff was 0.0065 s⁻¹ and the kon was determined as 1.2e+07 M⁻¹ s⁻¹. This molecule displayed a residual protease activity (FITC-hemoglobin), pH 3.5 (% residual activity) in data set [7] of 24. Besides, in data set [8], the residual amino-peptidase activity (L-Arg-pNA), equimolar inhibitor (% of residual activity) amounted to 85; the residual amino-peptidase activity (L-Arg-pNA), excess inhibitor (% of residual activity) worked out at 75; the residual broad spectrum endoprotease activity (Z-Phe-Arg-pNA), equimolar inhibitor (% of residual activity) was 30; the residual broad spectrum endoprotease activity (Z-Phe-Arg-pNA), excess inhibitor (% of residual activity) came to 20. In data set [8], this molecule gave a residual general proteolytic activity (azocasein) in excess of inhibitor (% residual activity) of 10; a residual narrow spectrum endoprotease activity (Z-Arg-Arg-pNA), equimolar inhibitor (% of residual activity) of 20; a residual narrow spectrum endoprotease activity (Z-Arg-Arg-pNA), excess inhibitor (% of residual activity) of -5; a residual tri-peptidil-peptidase and endoprotease activity (pGlu-Phe-Leu-pNA), equimolar inhibitor (% of residual activity) of 10. The residual tri-peptidil-peptidase and endoprotease activity (pGlu-Phe-Leu-pNA), excess inhibitor (% of residual activity) in data set [8] is -5. This molecule also came in with a residual protease activity (FITC-hemoglobin), pH 3.5 (% residual activity) in data set [9] of 5. Also, the Ki in the data set with papain [10] worked out at 0.57 nM. Besides, in the data set with cathepsin D [11], the binding stoichiometry (mol equistatin per mol cathepsin D) is 1.

For orientation: Ki means the dissociation constant of the complex between target and ligand, obtained from inhibition or displacement. Low readings indicate a stronger hold on the target, high ones a looser hold on the target. A word on the koff: it is the first-order rate constant of dissociation. Lower therefore signals slow dissociation. As usually defined, the kon is the rate constant with which the complex forms. Read a low kon as slow association.
